How the values were obtained:
[1] = molecular target: Recombinant Very Low Density Lipoprotein Receptor (VLDLR) ligand binding region; assay: SPR; VLDLR immobilised on a CM5 BIAcore chip (~2,000 response units, amine coupling); analytes in 10 mM Hepes pH 7.4, 150 mM NaCl, 1 mM CaCl2, 0.005% Tween-20 at 20 μL/min; regeneration 100 mM H3PO4; blank cell as reference; 1:1 binding model
[2] = molecular target: 6 × His-tagged PAI-2 lacking the intrahelical loop between C and D alpha-helices (PAI-2 ΔCD-loop), from pQE9 (human) (UniProt P05120); assay: native MS; positive ion ESI-MS (Q-TOF); 10 μM protein in 10 mM ammonium acetate pH 6.8 with 0.1% formic acid; monomeric and dimeric species seen

Substance | Kd [1] [nM] | koff [1] [s⁻¹] | kon [1] [M⁻¹ s⁻¹] | stoichiometry N [2]
uPA:PAI-2 ΔCD-loop complex (from UniProt P05120 1-415) | 4.34 | 0.00136 | 416000 | 
6 × His-tagged PAI-2 lacking the intrahelical loop between C and D alpha-helices (PAI-2 ΔCD-loop), from pQE9 (from UniProt P05120 1-415) (natural protein) |  |  |  | 2
uPA:PAI-2 wild-type complex (from UniProt P05120 1-415) | 4.81 | 0.00144 | 375000 | 

From article PMC2693429
